The conditions of data set [1]: bacterially expressed standard (Sigma C4053); cited from earlier work.
Data set [2] is described as follows: HPLC based CPG2 enzyme activity assay with CPG2 capture ELISA, supernatants of transiently transfected COS 7 cells. The class given is biochemical. The conditions noted are these: for specific activity of unpurified protein in crude supernatant, expressed in presence of tunicamycin / specific activity of unpurified protein in crude supernatant: COS 7 transient plasmid expression; for specific activity of unpurified protein in crude supernatant, expressed in presence of tunicamycin: 10 μg/ml tunicamycin (unglycosylated protein); for specific activity of unpurified protein in crude supernatant: tunicamycin absent, for CPG2 the combined activity of three protein forms (glycosylated and unglycosylated). As to the method: Transient tranfection of COS 7 cells can be achieved using a LIPOFECTIN™ based procedure. LIPOFECTIN™ Reagent (Gibco BRL Cat. No. 18292-011) is a 1:1 (w/w) liposome formulation of the cationic lipid DOTMA and DOPE in membrane filtered water. It binds spontaneously with DNA to form a lipid-DNA complex (Felgner et al., Proc. Natl. Acad Sci. USA (1987) 84, 7431. COS 7 cells are seeded into a 6 well plate a 2×10^5 cell/2 ml/well, from a subconfluent culture and incubated overnight at 37°, 5% CO2. A LIPOFECTIN™/serum free medium mix is made up containing 120 μl LIPOFECTIN™ plus 480 μl serum free medium and incubated at room temperature for 30 minutes. A DNA/serum free medium mix is prepared by mixing 12 μg DNA with 600 μl serum free medium. The LIPOFECTIN™/serum free medium mix is added to the DNA/serum free medium mix and left at room temperature for 15 mins. The cells are washed once with 2 ml serum free-medium, then 800 μl serum free media added plus 200 μl LIPOFECTIN™/DNA mix/well and incubated for 5 hours at 37°, 5% CO2. The LIPOFECIN™/DNA mix is removed from the cells and normal growth media added after which the cells are incubated for 48-72 hours at 37°, 5% CO2 when the supernatants are harvested.
COS 7 cells can also be transiently transfected in the presence of the glycosylation inhibitor tunicamycin. The transfection procedure is repeated as above, but after incubating for 5 hours at 37°, 5% CO2, 10 μg/ml tunicamycin (Sigma T7765) is added into the normal growth media.
(§1) For the CPG2 capture ELISA, 96 well plates precoated with goat anti-mouse IgG are used (PIERCE REACII-BIND™ 15134 plates). A second layer of mouse monoclonal anti-CPG2 diluted 1:800 in PBS/0.05% TWEEN™/BSA is added by overnight incubation at 4°. In between each binding step the plate is washed 3 times with PBS/0.05% TWEEN™. 100 μl test sample is added per well and doubling dilutions in PBS/0.05%TWEEN™ carried out across the plate. A fourth layer of rabbit polyclonal anti-CPG2 diluted 1:2500 in PBS/0.05% TWEEN™/2% BSA is added followed by a final layer of goat anit-rabbit IgG Horse Radish Peroxidase Labelled Antibody (DAKO PO448) diluted 1:1000 in PBS/0.05% TWEEN™/2% BSA. To detect binding, 100 μl per well of developing solution is added [one capsule of phosphate-citrate buffer (Sigma P4922) dissolved in 100 ml water to which is added one 30 mg tablet o-phenyldiamine dihydrochloride (Sigma P4812)] and the reaction stopped after 5 mins by adding 75 μl 2M H2SO4, and the absorbance read at 490 nm.
To measure CPG2 enzyme activity in cell supernatant samples at HPLC based CPG2 enzyme assay can be used. 125 βl cell supernatant is pulsed in a micro-centrifuge to remove cell debris and 375 μl fresh reaction buffer (PBS/0.2 mM ZnCl2) added. Upon addition of 100 μM methotrexate, a substrate for the CPG2 enzyme, the reaction is incubated at 37° for 1 hour. The reaction is stopped by the addition of 500 μl methanol/0.2% Trifluoroacetio acid. The 1 ml sample is placed in a capped vial and assayed using HPLC. An isocratic separation with a mobile phase containing: 60% Methanol/40%, 60 mM Ammonium formate/0.1% Trifluoroacetic acid is used with an S5SC×column (Hichrom). 60 μl of sample is injected and the absorbance at 300 nm measured over a total run time of 8 mins/sample giving expected retention times for methotrexate and metabolite of 3.9 and 5.6 respectively.
The two plasmids pNG3/RC/CPG2 and pNG3/RC/CPG2(Q3) (which encoded the glycosylatable and Q3 variant secretory forms of the CPG2 protein respectively) were transfected into COS-7 cells using the LIPOFECTIN™ transfection procedure. To confirm that the mutagenesis of CPG2 to CPG2(Q3) had removed all potential glycosylation sites, the two proteins were also expressed in the presence of the glycosylation inhibitor, tunicamycin. After 72 h of expression the cell supernatants were harvested for analysis. […]
(In general: In an ELISA, binding on a coated surface is turned into a signal by an enzyme label.)

Data set [3] is described as follows: HPLC based CPG2 enzyme activity assay with CPG2 capture ELISA, supernatants of adenovirally infected CHO K1 cells. The conditions noted are these: RAd infected CHO K1 cells, supernatant 48 hours after infection. The data set is classed as biochemical. As to the method: as §1
To measure CPG2 enzyme activity in cell supernatant samples at HPLC based CPG2 enzyme assay can be used. […] 60 μl of sample is injected and the absorbance at 300 nm measured over a total run time of 8 mins/sample giving expected retention times for methotrexate and metabolite of 3.9 and 5.6 respectively. […]

B1: bacterial CPG2: purified, bacterially expressed CPG2 used as a standard (Sigma C4053) (protein, UniProt P06621 23-415, looked up)
Carboxypeptidase G2: ALAQKRDNVLFQAATDEQPAVIKTLEKLVNIETGTGDAEGIAAAGNFLEAELKNLGFTVTRSKSAGLVVGDNIVGKIKGRGGKNLLLMSHMDTVYLKGILAKAPFRVEGDKAYGPGIADDKGGNAVILHTLKLLKEYGVRDYGTITVLFNTDEEKGSFGSRDLIQEEAKLADYVLSFEPTSAGDEKLSLGTSGIAYVQVNITGKASHAGAAPELGVNALVEASDLVLRTMNIDDKAKNLRFNWTIAKAGNVSNIIPASATLNADVRYARNEDFDAAMKTLEERAQQKKLPEADVKVIVTRGRPAFNAGEGGKKLVDKAVAYYKEAGGTLGVEERTGGGTDAAYAALSGKPVIESLGLPGFGYHSDKAEYVDISAIPRRLYMAARLIMDLGAGK
Take B1: the “specific activity of purified bacterial CPG2” value in data set [1] is 500 units/mg.

B2: CPG2(Q3): CPG2 with asparagine at positions 222, 264 & 272 mutated to glutamine, secreted form (protein, UniProt P06621 23-415, looked up, variant N222Q N264Q N272Q)
Carboxypeptidase G2: ALAQKRDNVLFQAATDEQPAVIKTLEKLVNIETGTGDAEGIAAAGNFLEAELKNLGFTVTRSKSAGLVVGDNIVGKIKGRGGKNLLLMSHMDTVYLKGILAKAPFRVEGDKAYGPGIADDKGGNAVILHTLKLLKEYGVRDYGTITVLFNTDEEKGSFGSRDLIQEEAKLADYVLSFEPTSAGDEKLSLGTSGIAYVQVQITGKASHAGAAPELGVNALVEASDLVLRTMNIDDKAKNLRFQWTIAKAGQVSNIIPASATLNADVRYARNEDFDAAMKTLEERAQQKKLPEADVKVIVTRGRPAFNAGEGGKKLVDKAVAYYKEAGGTLGVEERTGGGTDAAYAALSGKPVIESLGLPGFGYHSDKAEYVDISAIPRRLYMAARLIMDLGAGK
modifications: secreted form
notes: CPG2 with asparagine at positions 222, 264 & 272 mutated to glutamine, secreted form
Consider B2, for which, in data set [2], the “specific activity of unpurified protein in crude supernatant, expressed in presence of tunicamycin” value is on record as 90-124 units/mg and the “specific activity of unpurified protein in crude supernatant” value is on record as 71-120 units/mg. Also, the “reduction of enzyme activity by mutagenesis of CPG2 to CPG2(Q3)” value in data set [2] (as printed: compared with bacterial expressed enzyme) is 2 fold. Moreover, the “specific activity, fold lower than wild type bacterial enzyme” value in data set [2] (unpurified protein, COS 7 supernatant) is listed as “approximately 5 fold”. For the same molecule, in data set [3], the “specific activity of virally expressed secretable enzyme” value came to 180 units/mg.

B3: CPG2: carboxypeptidase G2 with kappa light chain secretory leader, unaltered glycosylation sites, expressed from mammalian cells (pNG3/RC/CPG2) (protein, UniProt P06621 23-415, looked up)
Carboxypeptidase G2: ALAQKRDNVLFQAATDEQPAVIKTLEKLVNIETGTGDAEGIAAAGNFLEAELKNLGFTVTRSKSAGLVVGDNIVGKIKGRGGKNLLLMSHMDTVYLKGILAKAPFRVEGDKAYGPGIADDKGGNAVILHTLKLLKEYGVRDYGTITVLFNTDEEKGSFGSRDLIQEEAKLADYVLSFEPTSAGDEKLSLGTSGIAYVQVNITGKASHAGAAPELGVNALVEASDLVLRTMNIDDKAKNLRFNWTIAKAGNVSNIIPASATLNADVRYARNEDFDAAMKTLEERAQQKKLPEADVKVIVTRGRPAFNAGEGGKKLVDKAVAYYKEAGGTLGVEERTGGGTDAAYAALSGKPVIESLGLPGFGYHSDKAEYVDISAIPRRLYMAARLIMDLGAGK
modifications: kappa light chain secretory leader
B3: in data set [2], the “specific activity of unpurified protein in crude supernatant, expressed in presence of tunicamycin” value is 165-210 units/mg and the “specific activity of unpurified protein in crude supernatant” value is recorded as 61-87 units/mg. Further, in data set [3], the “specific activity of virally expressed secretable enzyme” value is on record as 71 units/mg.

(Values after patent US6838446B1, “Vector for expression of GPI-enzyme hybrid” (AstraZeneca AB, priority 1999, dated 2005).)
